These results are taken from publication PMC12033333 (Nature Communications, 2025).

Sequences and labels used below:
T1: MBP-fused phyB^OPM (Arabidopsis thaliana, UniProt P14713 642-1172)
T1 sequence: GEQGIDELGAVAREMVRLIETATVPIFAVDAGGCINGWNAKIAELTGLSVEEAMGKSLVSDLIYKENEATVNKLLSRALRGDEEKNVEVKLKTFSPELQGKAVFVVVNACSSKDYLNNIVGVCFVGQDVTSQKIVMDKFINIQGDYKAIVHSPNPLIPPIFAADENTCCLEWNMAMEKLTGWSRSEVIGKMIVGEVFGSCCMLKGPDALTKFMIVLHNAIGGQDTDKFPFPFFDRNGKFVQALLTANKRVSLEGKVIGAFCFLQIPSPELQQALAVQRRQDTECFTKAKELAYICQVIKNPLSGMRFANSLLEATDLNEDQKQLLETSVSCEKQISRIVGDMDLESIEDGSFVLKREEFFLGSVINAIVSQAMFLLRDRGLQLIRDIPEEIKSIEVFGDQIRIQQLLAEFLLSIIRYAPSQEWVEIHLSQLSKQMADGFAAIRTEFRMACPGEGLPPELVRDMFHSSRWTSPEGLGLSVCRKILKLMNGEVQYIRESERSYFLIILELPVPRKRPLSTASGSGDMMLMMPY

T2: GST-PIF3 (Arabidopsis thaliana, UniProt O80536 1-524)
T2 sequence: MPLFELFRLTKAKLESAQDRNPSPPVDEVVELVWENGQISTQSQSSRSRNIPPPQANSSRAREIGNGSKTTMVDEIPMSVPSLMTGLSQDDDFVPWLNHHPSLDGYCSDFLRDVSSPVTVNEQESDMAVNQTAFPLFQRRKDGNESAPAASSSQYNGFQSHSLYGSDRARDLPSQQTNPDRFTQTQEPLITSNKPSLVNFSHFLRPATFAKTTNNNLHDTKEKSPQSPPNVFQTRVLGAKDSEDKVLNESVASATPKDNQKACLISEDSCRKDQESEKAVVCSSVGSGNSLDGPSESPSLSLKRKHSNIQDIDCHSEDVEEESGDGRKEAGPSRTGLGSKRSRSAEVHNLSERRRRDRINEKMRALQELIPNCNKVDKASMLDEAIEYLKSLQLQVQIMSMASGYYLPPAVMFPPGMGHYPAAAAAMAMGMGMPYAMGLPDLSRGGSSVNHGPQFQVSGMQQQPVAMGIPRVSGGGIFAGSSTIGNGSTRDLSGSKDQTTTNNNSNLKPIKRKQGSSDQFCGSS

T3: SBP-fused phyA^PSM (Arabidopsis thaliana, UniProt P14712 1-615, chromophore-bound (phycocyanobilin, PCB))
T3 sequence: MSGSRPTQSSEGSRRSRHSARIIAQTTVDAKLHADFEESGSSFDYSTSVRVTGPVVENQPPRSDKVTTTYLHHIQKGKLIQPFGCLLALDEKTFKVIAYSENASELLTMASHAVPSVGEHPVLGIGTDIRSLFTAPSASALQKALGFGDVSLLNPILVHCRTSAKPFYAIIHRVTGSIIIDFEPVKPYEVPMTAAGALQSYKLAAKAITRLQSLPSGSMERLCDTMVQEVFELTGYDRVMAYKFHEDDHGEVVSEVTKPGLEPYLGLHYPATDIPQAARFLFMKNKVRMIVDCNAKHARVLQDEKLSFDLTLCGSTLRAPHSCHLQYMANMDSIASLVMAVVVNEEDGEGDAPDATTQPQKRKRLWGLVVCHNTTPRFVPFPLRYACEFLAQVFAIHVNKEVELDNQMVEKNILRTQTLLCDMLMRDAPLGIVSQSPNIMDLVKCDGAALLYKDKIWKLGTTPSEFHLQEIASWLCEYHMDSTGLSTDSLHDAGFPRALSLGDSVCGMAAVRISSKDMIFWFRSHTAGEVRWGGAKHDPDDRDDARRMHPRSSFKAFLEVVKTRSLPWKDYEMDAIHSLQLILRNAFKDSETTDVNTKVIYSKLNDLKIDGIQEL

B1: GST-fused APA (PIF3 86-221 a.a.) (domain or fragment)
chain: GLSQDDDFVPWLNHHPSLDGYCSDFLRDVSSPVTVNEQESDMAVNQTAFPLFQRRKDGNESAPAASSSQYNGFQSHSLYGSDRARDLPSQQTNPDRFTQTQEPLITSNKPSLVNFSHFLRPATFAKTTNNNLHDTK
B2: MBP-fused phyA^OPM (domain or fragment)
chain: KIDGIQELEAVTSEMVRLIETATVPILAVDSDGLVNGWNTKIAELTGLSVDEAIGKHFLTLVEDSSVEIVKRMLENALEGTEEQNVQFEIKTHLSRADAGPISLVVNACASRDLHENVVGVCFVAHDLTGQKTVMDKFTRIEGDYKAIIQNPNPLIPPIFGTDEFGWCTEWNPAMSKLTGLKREEVIDKMLLGEVFGTQKSCCRLKNQEAFVNLGIVLNNAVTSQDPEKVSFAFFTRGGKYVECLLCVSKKLDREGVVTGVFCFLQLASHELQQALHVQRLAERTAVKRLKALAYIKRQIRNPLSGIMFTRKMIEGTELGPEQRRILQTSALCQKQLSKILDDSDLESIIEGCLDLEMKEFTLNEVLTASTSQVMMKSNGKSVRITNETGEEVMSDTLYGDSIRLQQVLADFMLMAVNFTPSGGQLTVSASLRKDQLGRSVHLANLEIRLTHTGAGIPEFLLNQMFGTEEDVSEEGLSLMVSRKLVKLMNGDVQYLRQAGKSSFIITAELAAANK

Test in all cases: pull-down
The test “MBP-fused phyA^OPM” addresses B2.
Another test addresses T1, MBP-fused phyB^OPM.
The target of a further test is T2, GST-PIF3.
A further test concerns the target T3, SBP-fused phyA^PSM.

Take B1: the binding result with MBP-fused phyA^OPM and with MBP-fused phyB^OPM was “binds” in each case.
On to B2, for which the binding result in the test with GST-PIF3 and in the test with SBP-fused phyA^PSM was “binds” each time.
